Source: the DeepSol protein solubility set

Assay: soluble on expression in E. coli; label from the status in PepcDB or PDB records

Sequence	soluble on expression in E. coli
MGSDKIHHHHHHMKGFMNMFTNDQFKSLLIKTLERKSSSNYYEGGNEIVSKMKISEVTLDETDDFTYYKGYKKGWNTLCTYLKIRVPFDDLDFFESHKDLITQTASSIYDKQGDNVLVDTILVPLPENYEVINFSQLKISDVVSQAIEDAESFMSNGEYQRAFDRVHTAFHGYLIEILKKYEITVPRDENLSKLYSRIQQLIEKEIQPTELADIVKTTIRSSNGMISSLNEARNRHSLAHPNTNIIGKREAKLIIGISSTVTDYISGYLDK	not soluble
GASCSGGDKSKAPVVSTADIENAAEVIKYYNTSLGVLKDMVKEKDVNAVLDYMEQKGKTPALSAIVPPAVVSKDSAIVLNPGNCFNEETRRNLKQNYTGLFQARTEFYANFDTYLSYLKKKDVTNAKKLLDVNYQLSTQMSEYKQNIFDILSPFTEQAELVLLVDNPLKAQIMSVRKMSSTMQSILNLYARKHRMDGPRIDLKVAELTKQLDAAKKLPVVNGHEGEMKSYQAFLSQVETFIKQVKKVREKGEYSDADYDMLTSAFETSII	soluble
MSLIEPDHPDLSIGQQCKLLSIARSSYYYEPKGETEQNLGLMRRIDEQFLETPFFGVRQMTWHLRNDGHLVNEKRIRWLMRLMGLMPIYQKPNTNRPTKGHKTYPYLLRGLRVERPNQVWCSDITYLPMRRGFLYLVAIMDWHTRKVLSWRISNTLEAQFCVDALNEAIHKFGPPEIMNTDQGSQFTSFAWTDRLRRSGVRISPLAHENMRCRAADGRERSVPPLSWFASKPLSGNGQHLHREAVAHPEIRVRLPACLGDRFGDKGGHPEMDDLLQPPAPAFSPRRQATGAGLLAEKEGHHHHHH	not soluble
AMGVPCVEDEDFIQALDKMMLENLQQRSGESVKVHQLDVAIPLHLKSQLRKGPPLGGGEGEAESADTMPFVMLTRKGNKQQFKILNVPMSSQLAANH	soluble
MTASSDPHVIFVGSGINSLVSAALLATRGKRVLVLERNDRLGGCIRTEELFPGYHHEVMSSWYPLFVGSPGYAELKPALEQAGLAFLCPDYTTGLVWPDGRGLALKQDLNDAVQRLEALAPGDGAALGAMAARLFGPDAALTFGLLGQNPYGWAMLKLLFGQWRQRGTDGLAAFAADALETFRRWSERTLRSDLARALIAPWVLHSGLGPDDAGSALIGKLTFASVVSGGMPVVKGGGSRLVEALARVIEQHGGTLMTGTPVEQVLTEGQGRRRRATGVAVTGGRRLRAQQAVVCNVTPQQLYGRLLPEMPQPLRERAEGYRYGRGDMQIHFALNAPPAWREAELCKVPLVHLTESLEQVCASVTQANNGLLPSRPTLGIGQPTVADPSRAPAGGWILWIQMQELPTRLKGDAAGEIPVPADGRWNEAVREAFADRVQARLERVMPGLAERIVGRRAYSPADLEVLNCNLVGGDPYSGVCSPDQFFWLRPFAGSQGARAHRTPLANVFHIGASTHPGPGLGAGSGFMVAQHLSPR	not soluble
MGSDKIHHHHHHMRLPPLKALPVFEAAARLNSFSAASEELAITQSAVSHQIKQLETYLGERLFWRSGRRVTLTDEGRQYFDAIGSALLQIERASEQLLGHEESRLRLSVFSSFAVRWLVPRLPDLQRLHPQIDLALEMSSENPVLSDRVADCFITIHRDSRAYSYDLLYEERLFPVCSQDYWQRMRRELGRDVEPERRDEQPVSPGEMAGFPLLSTHSIFDRPAGDWEAWYSAAGELMPTGTRVQHFSHMLLALEAARFHQGIALTNDYMLSTRKDSEDFVRLPTHSVVTGDKFYFAWKTSRRRERGIQTLRRWLVDEAIRGGLRGE	not soluble
MGSDKIHHHHHHMTKKLPIGIQTFREIREESYYYVDKTSFALKLAMEGKYYFLSRPRRFGKSLFLDTLAELFAGNEALFHGLYCHDRWDWSVRYPIIRLSFAEGWLESRAQLDKRICWLLEQNQQRLGVTCKQESDIPGSFAELLQNAEAKYGQRCVVLVDEYDKPILDNITEPEIARAMREGLRNLYSVIKGQDAHIRFAFLTGVSKFSKVSIFSGLNNLNDITIDADYSAICGYTDEDVDTVFAPELPGLDRQQIQDWYNGYNWTGQPVYNPFDLLLLFDKREFRAYWFETGTPTFLVDWLMQRGYFTPSLSRQYSSLELLSAFDVDHIEPEALLFQTGYTTLQGVEEYLPGQRIYWLGYPNKEVQISLNNALLPALGIEGQKVLTHRIRLLELLRANNFAGLQQLFTSFFASIPHDWYRNNPIAQYEGYYASVFYSHFAALGLDIVVEDTTHHGRIDMAVTFNANVYLFEFKVVELVPEGHALEQLKTKGYAEKYKIRNEPIYLIGAEFSKDSRSVVAFDVELFA	not soluble
MSTFRLALIQLQVSSIKSDNLTRACSLVREAAKQGANIVSLPECFNSPYGTTYFPDYAEKIPGESTQKLSEVAKESSIYLIGGSIPEEDAGKLYNTCSVFGPDGSLLVKHRKIHLFDIDVPGKITFQESKTLSPGDSFSTFDTPYCKVGLGICYDMRFAELAQIYAQRGCQLLVYPGAFNLTTGPAHWELLQRARAVDNQVYVATASPARDDKASYVAWGHSTVVDPWGQVLTKAGTEETILYSDIDLKKLAEIRQQIPILKQKRADLYTVESKKP	soluble
MGSDKIHHHHHHLNNCGMVAWIMTLYTPEKPRGFDLIVIGNDVTFQSGSFGTAEDDLFAAASTYSREHKLPRVNVSVNSGARIGLSTKISKLVKLQLENEDKPEQGFEYIYIDGEHKAQIEGEVVYEELGNGRLKILAVIGAKNEKIGVENLQGSGLIAGETARAYAEVPTYCYVTGRSVGIGAYTARLAHRIVQHKQSHLILTGYEALNTLLGKKVYTSNNQLGGPEVMFRNGVTHAVVDNDLEGIAKVIRWMSFLPTPTEEFPFFSKHGDDCSARDVVIPSDSEQNTYDVRDLIDSKNLSNQTGICDTMSFDEICGDWAKSIVAGRARLCGIPIGVVSSEFRNFSTIVPADPAIDGSQVQNTQRAGQVWYPDSAFKTAEAINDLNKENLPLMIIASLRGFSGGQKDMYDMVLKFGAQIVDALAVYNRPVIVYIPEAGELRGGAWAVLDSKIRPEFIHLVADEKSRGGILEPNAVVGIKFRKPMMMEMMKRSDPTYSKLSSSTEPEAREQLEERYEELSKTYRNASVEFADAHDRWQRMKSVGVVEHVTSLTNSRRLFSELLRNEL	not soluble
MRSQRIVHIVSCHAEGEVGDVIVGGVAAPPGATLWEQSRWIARDQDLRNFVLNEPRGGVFRHANLLVPAKDPRAQMGWIIMEPADTPPMSGSNSLCVATVLLDSGILPMREPLTRLLLEAPGGLIEARAECRDGKAERVEIRNVPSFADRLDAWIEVEGLGSLQVDTAYGGDSFVIADARRLGFALRADEAAELVATGLKITHAANEQLGFRHPTNPDWDHLSFCQLAAPPERRDGVLGANNAVVIRPGKIDRSPCGTGCSARMAVLQAKGQLRVGERFVGRSIIGSEFHCHIESLTELGGRPAILPCLSGRAWITGIHQYLLDPDDPWPQGYRLSDTWPGGHC	not soluble
RETFNYMLPGAGVRGAAMARTAGRWGERVVSHNATFKLLTDLRIFFFKKLAPLIPGRVSTMRDADLLNRLVADVDAMDHVYLR	not soluble
MCEIFIRANQRSYSVQARSLRLHGVATSVRLEQLFWDVLEEIAARDGMRVTQLIERLYDELVQYRGEAANFTSFLRVCCLRYQVLQAEGRIPADATVPIRSLDAQAVLRGLPANLYDSRPLG	soluble
MIFEDKFIITTADEIPGLQLYSLGIASTISDNVDEIVENLRKQVKAKGGMGLIAFRITCADGKFLGYGTIVKADEAQFTMA	soluble
HKQLNFVDLYYHPVLADMAALLSQKNVFKAIYTFVPRTDDMGDKPALFVIHSGNTGSDVYRPLFTGIKRPSFPIYVIEPHNLLNPEDQIYGIENLAKYYLQMINKFLPESSKREINLMGWSYGGVVASEMCYQLEHETSLLHVNQLTVLDSSFYLSSEDLQRVRKREANGFYAKYFTETHIFEGMDKKNVTTERLIANNHQVCEDLFNYHSKQVNVATTFVRSMVEENPLTDEQIKLLFKHVTIKNVYDGHDYLFVHESSRSLIQDVLGLAA	not soluble
MGSDKIHHHHHHMIKLKKVLVLGGTRFFGKHLVEALLQDGHDVTIATRGITEDSFGSRVKRLIVDREDEKQLAERLADKSYDIVYDNLCYSSNAAKIICEVLRGKTTKYVMTSSMAVYEPALSLSEEDFDPYEYAIAYGDRNDFNYGEGKRLAEAVVFQQATFPVVAVRFPVVIGENDYTKRLQFYVEHIVREEPVAVNHLDGKLSFIHEEEAGEFLAWCGMKDIEGPINACSNGVVSTREIIHFIEENTGIKSLIQEVGDHVAPYNEVTNCTLHNGKANELGFPFRGLKIEIEKVLCYYIHAMK	not soluble
